According to patent US20240174727A1, “LONG-ACTING NATRIURETIC PEPTIDES AND USES THEREOF” (Eli Lilly and Company, priority 2022, published 2024):
Numbered stars: 1 amine (or outer) side, 2 acyl side, 3 side chain; on linkers, the order of the positions; unused ones are H or OH. Bridge positions count the residues as written; N and C are the ends. Square brackets hold non-standard residues; d marks the D form. * marks the point of attachment. thioacetal = thioacetal linkage between two cysteines (intrachain bond at the bracketed Cys); C20 diacid = O=C(O)CCCCCCCCCCCCCCCCCCC(=O)*; γGlu = O=C(O)[C@H](CCC(=O)[*:2])N[*:1]; Orn = NCCC[C@H](N)C(=O)O; Dap = NC[C@H](N)C(=O)O; βAla = NCCC(=O)O

T1: human NPRA (human, UniProt P16066 33-1061)
T1 sequence (looked up): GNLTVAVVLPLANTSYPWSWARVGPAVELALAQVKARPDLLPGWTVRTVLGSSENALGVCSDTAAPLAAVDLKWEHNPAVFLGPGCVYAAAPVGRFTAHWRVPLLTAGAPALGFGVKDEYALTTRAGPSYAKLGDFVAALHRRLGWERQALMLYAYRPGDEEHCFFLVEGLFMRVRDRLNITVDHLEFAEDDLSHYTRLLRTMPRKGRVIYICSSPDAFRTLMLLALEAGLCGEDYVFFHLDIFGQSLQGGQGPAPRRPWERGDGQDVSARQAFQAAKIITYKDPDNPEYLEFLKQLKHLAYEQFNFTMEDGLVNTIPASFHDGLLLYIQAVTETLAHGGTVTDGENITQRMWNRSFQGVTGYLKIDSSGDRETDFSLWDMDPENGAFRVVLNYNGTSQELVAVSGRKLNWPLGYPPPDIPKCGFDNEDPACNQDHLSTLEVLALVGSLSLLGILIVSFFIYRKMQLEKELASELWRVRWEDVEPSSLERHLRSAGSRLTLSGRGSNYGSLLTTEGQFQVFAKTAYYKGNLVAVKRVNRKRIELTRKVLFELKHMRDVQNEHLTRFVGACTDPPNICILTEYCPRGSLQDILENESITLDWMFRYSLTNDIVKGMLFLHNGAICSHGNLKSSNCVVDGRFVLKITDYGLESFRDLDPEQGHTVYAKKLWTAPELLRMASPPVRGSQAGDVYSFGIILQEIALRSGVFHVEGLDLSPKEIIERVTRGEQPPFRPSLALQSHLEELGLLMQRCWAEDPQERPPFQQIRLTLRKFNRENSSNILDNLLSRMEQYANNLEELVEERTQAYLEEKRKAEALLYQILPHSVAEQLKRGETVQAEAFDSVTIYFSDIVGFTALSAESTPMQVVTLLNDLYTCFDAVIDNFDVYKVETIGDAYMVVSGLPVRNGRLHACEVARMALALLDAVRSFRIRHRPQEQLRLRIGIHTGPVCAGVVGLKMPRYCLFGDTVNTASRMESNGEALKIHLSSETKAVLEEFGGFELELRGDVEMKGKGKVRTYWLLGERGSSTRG

T2: rat NPRA (rat, UniProt P18910 29-1057)
T2 sequence (looked up): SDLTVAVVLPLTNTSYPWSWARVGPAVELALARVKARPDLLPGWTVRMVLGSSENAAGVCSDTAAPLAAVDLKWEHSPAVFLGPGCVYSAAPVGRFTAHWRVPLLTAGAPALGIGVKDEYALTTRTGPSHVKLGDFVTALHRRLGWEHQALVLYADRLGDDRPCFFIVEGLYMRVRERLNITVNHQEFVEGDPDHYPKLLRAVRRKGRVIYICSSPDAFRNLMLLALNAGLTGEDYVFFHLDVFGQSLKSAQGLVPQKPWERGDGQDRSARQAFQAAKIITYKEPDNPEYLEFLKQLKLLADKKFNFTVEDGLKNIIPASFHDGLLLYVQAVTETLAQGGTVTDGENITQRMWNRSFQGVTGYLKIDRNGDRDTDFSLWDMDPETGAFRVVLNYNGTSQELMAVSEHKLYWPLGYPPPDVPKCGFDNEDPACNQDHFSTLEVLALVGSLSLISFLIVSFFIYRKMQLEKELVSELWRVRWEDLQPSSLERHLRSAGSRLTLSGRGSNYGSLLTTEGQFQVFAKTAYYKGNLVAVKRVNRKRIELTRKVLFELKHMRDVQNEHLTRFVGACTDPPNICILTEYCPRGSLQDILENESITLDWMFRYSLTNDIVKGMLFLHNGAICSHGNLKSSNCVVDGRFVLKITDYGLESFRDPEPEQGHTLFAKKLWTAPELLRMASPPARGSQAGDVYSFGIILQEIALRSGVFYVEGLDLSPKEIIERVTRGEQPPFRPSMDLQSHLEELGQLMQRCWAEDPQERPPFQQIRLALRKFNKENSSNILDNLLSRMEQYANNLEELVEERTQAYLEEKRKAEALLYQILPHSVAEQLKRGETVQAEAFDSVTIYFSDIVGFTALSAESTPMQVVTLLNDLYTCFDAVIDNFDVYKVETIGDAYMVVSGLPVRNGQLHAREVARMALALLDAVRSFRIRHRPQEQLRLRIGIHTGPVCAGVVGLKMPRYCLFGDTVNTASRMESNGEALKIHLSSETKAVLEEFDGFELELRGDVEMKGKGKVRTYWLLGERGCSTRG

B1: HOOC-(CH2)18-CO-(γGlu)-EKEKEKG-(AEEA)6-EKPRSS[CFGKRIDRIGHYSGLGC]PSFRHSGSPSSGAPPPSG-NH2 (peptide)
peptide: EKPRSSCFGKRIDRIGHYSGLGCPSFRHSGSPSSGAPPPSG
modifications: N-terminus acylated with HOOC-(CH2)18-CO-(γGlu)-; (AEEA)6 after EKEKEKG; thioacetal linkage between the two bracketed Cys; C-terminal amide
B2: HOOC-(CH2)18-CO-(γGlu)-EKEKEKG-(AEEA)8-EKPRSS[CFGKRIDRIGHYSGLGC]PSFRHSGSPSSGAPPPSG-NH2 (peptide)
peptide: EKPRSSCFGKRIDRIGHYSGLGCPSFRHSGSPSSGAPPPSG
modifications: N-terminus acylated with HOOC-(CH2)18-CO-(γGlu)-; (AEEA)8 after EKEKEKG; thioacetal linkage between the two bracketed Cys; C-terminal amide
B3: HOOC-(CH2)18-CO-(γGlu)-EKEKEKG-PEG24-EKPRSS[CFGKRIDRIGHQSGLGC]PSFRHSGSPSSGAPPPSG-NH2 (peptide)
peptide: EKPRSSCFGKRIDRIGHQSGLGCPSFRHSGSPSSGAPPPSG
modifications: N-terminus acylated with HOOC-(CH2)18-CO-(γGlu)-; PEG24 after EKEKEKG; thioacetal linkage between the two bracketed Cys; C-terminal amide
B4: HOOC-(CH2)18-CO-(γGlu)-EKEKEKG-PEG24-EKPRSS[CFGKRIDRIGHYSGLGC]PSFRHSGSPSSGAPPPSG-NH2 (peptide)
peptide: EKPRSSCFGKRIDRIGHYSGLGCPSFRHSGSPSSGAPPPSG
modifications: N-terminus acylated with HOOC-(CH2)18-CO-(γGlu)-; PEG24 after EKEKEKG; thioacetal linkage between the two bracketed Cys; C-terminal amide
B5: HOOC-(CH2)18-CO-(γGlu)-EKEKEKG-PEG24-EKPRSS[CFGKGIDRIGHQSGLGC]PSFRHSGSPSSGAPPPSG-NH2 (peptide)
peptide: EKPRSSCFGKGIDRIGHQSGLGCPSFRHSGSPSSGAPPPSG
modifications: N-terminus acylated with HOOC-(CH2)18-CO-(γGlu)-; PEG24 after EKEKEKG; thioacetal linkage between the two bracketed Cys; C-terminal amide
B6: HOOC-(CH2)18-CO-(γGlu)-EKEKEKG-(AEEA)6-S-4Pal-RRSS[CFGKRIDRIGHYSGLGC]PSFRHGSGSPSSGAPPPSG-NH2 (peptide)
peptide: SXRRSSCFGKRIDRIGHYSGLGCPSFRHGSGSPSSGAPPPSG
modifications: N-terminus acylated with HOOC-(CH2)18-CO-(γGlu)-; (AEEA)6 after EKEKEKG; 4Pal; thioacetal linkage between the two bracketed Cys; C-terminal amide

What was measured:
human NPRA = molecular target: T1, human NPRA; assay: cell-based or functional assay
rat NPRA = molecular target: T2, rat NPRA; assay: cell-based or functional assay

Binder | cGMP Assay (EC50, pM) w/BSA, hNPRA (human NPRA) | cGMP Assay (EC50, pM) w/Casein, hNPRA (human NPRA) | cGMP Assay (EC50, pM) w/BSA, rNPRA (rat NPRA) | cGMP Assay (EC50, pM) w/Casein, rNPRA (rat NPRA)
{C20 diacid-γGlu}-EKEKEKGEKPRSSCFGG[Dap]IDRIGHYSGLGCPSFRHGSPSSGAPPPS-NH2 (bridge 14-30 via thioacetal) [HOOC-(CH2)18-CO-(γGlu)-EKEKEKGEKPRSS[CFGG-Dap-IDRIGHYSGLGC]PSFRHGSPSSGAPPPS-NH2] | 1.41e+06 pM | 5350 pM | 3.8e+06 pM | 71700 pM
{C20 diacid-γGlu}-EKEKEKGEKPRSSCFGKRIDRIGHQSGLGCPSFRHGSPSSGAPPPS-NH2 (bridge 14-30 via thioacetal) [HOOC-(CH2)18-CO-(γGlu)-EKEKEKGEKPRSS[CFGKRIDRIGHQSGLGC]PSFRHGSPSSGAPPPS-NH2] | 41500 pM | 703 pM | 341000 pM | 2020 pM
B1 | 8970 pM | 745 pM | 205000 pM | 3830 pM
B2 | 6370 pM | 1090 pM | 88500 pM | 3760 pM
B3 | 5300 pM | 704 pM | 260000 pM | 9390 pM
B4 | 3980 pM | 656 pM | 74300 pM | 4510 pM
B5 | 302000 pM | 38700 pM | 1.45e+06 pM | 580000 pM
{C20 diacid-γGlu}-EKEKEKGEKPRSSCFGKRIDRIG[Orn]YSGLGCPSFRHGSPSSGAPPPS-NH2 (bridge 14-30 via thioacetal) [HOOC-(CH2)18-CO-(γGlu)-EKEKEKGEKPRSS[CFGKRIDRIG-Orn-YSGLGC]PSFRHGSPSSGAPPPS-NH2] | 104000 pM | 497 pM | 6.52e+06 pM | 186000 pM
B6 | 9170 pM | 922 pM | 200000 pM | 6040 pM
{C20 diacid-γGlu}-EKEKEKGEKPRSSCFGKRIDRIGHQSGLGCPSFRHGSGSPSSGAPPPSG-NH2 (bridge 14-30 via thioacetal) [HOOC-(CH2)18-CO-(γGlu)-EKEKEKGEKPRSS[CFGKRIDRIGHQSGLGC]PSFRHGSGSPSSGAPPPSG-NH2] | 37600 pM | 392 pM | 816000 pM | 2160 pM
{C20 diacid}-[γGlu]EKEKEKGEK[βAla]RSSCFGKRIDRIGHYSGLGCPSFRHGSPSSGAPPPS-NH2 (bridge 15-31 via thioacetal) [HOOC-(CH2)18-CO-(γGlu)-EKEKEKGEK-βAla-RSS[CFGKRIDRIGHYSGLGC]PSFRHGSPSSGAPPPS-NH2] | 23700 pM | 566 pM | 498000 pM | 2010 pM
